Data set [1] concerns the molecule itself. As to the kind of experiment: SEC-MALS; sample buffer (20 mM K-phosphate pH 6.5, 100 mM KCl, 0.5 mM EDTA); 6 °C for the individual domains; concentration series fitted to a fast monomer–dimer equilibrium; dimer to monomers. A general note: Size exclusion chromatography separates by hydrodynamic size, large species first.
Data set [2] deals with the molecule itself. Kind of data set: SEC-MALS; concentration series of full-length TF and full-length mutants alone, 26 °C, sample buffer (20 mM K-phosphate pH 6.5, 100 mM KCl, 0.5 mM EDTA); fit to a fast monomer-dimer equilibrium; dimer to monomers.

Numbering of substitutions follows the chain as printed. Names and notes keep the numbering of the source.

B1: SBD (114–148/247–432) (domain or fragment, E. coli, UniProt P0A850 114-148, looked up)
chain: EVELQGLEAIEVEKPIVEVTDADVDGMLDTLRKQQELTAEFIKRFGVEDGSVEGLRAEVRKNMERELKSAIRNRVKSQAIEGLVKANDIDVPAALIDSEIDVLRRQAAQRFGGNEKQALELPRELFEEQAKRRVVVGLLLGEVIRTNELKADEERVKGLIEEMASAYEDPKEVIEFYSKNKELMDNMRNVALEEQAVEAVLAKAKVTEKETTFNELMNQQA
notes: Trigger Factor, E. coli, residues 114-148 (linker part of the SBD); Trigger Factor, E. coli, residues 247-432 (C-terminal part of the SBD); The PPD (149-246) is left out; not shown: His tag, N-terminal, cleaved
On to B1, for which the Kd (commonly a measure of binding affinity in units of concentration) in data set [1] is over 1000 µM.

B2: RBD (residues 1–117) (domain or fragment, E. coli, UniProt P0A850 1-117, looked up)
chain: MQVSVETTQGLGRRVTITIAADSIETAVKSELVNVAKKVRIDGFRKGKVPMNIVAQRYGASVRQDVLGDLMSRNFIDAIIKEKINPAGAPTYVPGEYKLGEDFTYSVEFEVYPEVEL
notes: Trigger Factor, E. coli, residues 1-117 (stop codon at position 118); not shown: His tag, N-terminal, cleaved
As for B2, the Kd in data set [1] is at least 1500 µM.

B3: PPD (149–249) (domain or fragment, E. coli, UniProt P0A850 149-249, looked up)
chain: ATWKEKDGAVEAEDRVTIDFTGSVDGEEFEGGKASDFVLAMGQGRMIPGFEDGIKGHKAGEEFTIDVTFPEEYHAENLKGKAAKFAINLKKVEERELPELT
notes: Trigger Factor, E. coli, residues 149-249; also called peptidyl-prolyl isomerase domain; not shown: His tag, N-terminal, cleaved
In data set [1], B3 had a dissociation constant Kd of over 5000 µM.

B4: TF(3A) with mutation set mutC (M140E) (natural protein, E. coli, UniProt P0A850 1-432, looked up)
chain: MQVSVETTQGLGRRVTITIAADSIETAVKSELVNVAKKVRIDGAAAGKVPMNIVAQRYGASVRQDVLGDLMSRNFIDAIIKEKINPAGAPTYVPGEYKLGEDFTYSVEFEVYPEVELQGLEAIEVEKPIVEVTDADVDGELDTLRKQQATWKEKDGAVEAEDRVTIDFTGSVDGEEFEGGKASDFVLAMGQGRMIPGFEDGIKGHKAGEEFTIDVTFPEEYHAENLKGKAAKFAINLKKVEERELPELTAEFIKRFGVEDGSVEGLRAEVRKNMERELKSAIRNRVKSQAIEGLVKANDIDVPAALIDSEIDVLRRQAAQRFGGNEKQALELPRELFEEQAKRRVVVGLLLGEVIRTNELKADEERVKGLIEEMASAYEDPKEVIEFYSKNKELMDNMRNVALEEQAVEAVLAKAKVTEKETTFNELMNQQA
notes: Trigger Factor, E. coli, residues 1-432, TF(3A) background; not shown: His6, N-terminal, cleaved
As for B4, the Kd in data set [2] worked out at 28 µM.

B5: TF(3A) variant TF(F44A, R45A, K46A) (natural protein, E. coli, UniProt P0A850 1-432, looked up)
chain: B4 chain with E140M
notes: not shown: His6, N-terminal, cleaved
As to B5, binding in data set [2] was put at a Kd of 1.1 µM.

B6: TF(3A) with mutation sets mutB + mutC (M374A, Y378A, V384A, F387A, M140E) (natural protein, E. coli, UniProt P0A850 1-432, looked up)
chain: B4 chain with M374A, Y378A, V384A, F387A
notes: Trigger Factor, E. coli, residues 1-432, TF(3A) background; also called mutC + mutB; not shown: His6, N-terminal, cleaved
On to B6, for which the Kd in data set [2] was over 1000 µM.

B7: TF(3A) with mutation set mutD (R316A, R321A) (natural protein, E. coli, UniProt P0A850 1-432, looked up)
chain: B4 chain with E140M, R316A, R321A
notes: as for B4
With B7, the Kd in data set [2] was determined as 22 µM.

B8: TF(3A) with mutation sets mutD + mutC (R316A, R321A, M140E) (natural protein, E. coli, UniProt P0A850 1-432, looked up)
chain: B4 chain with R316A, R321A
notes: Trigger Factor, E. coli, residues 1-432, TF(3A) background; also called mutC + mutD; not shown: His6, N-terminal, cleaved
As for B8, the Kd in data set [2] amounted to 260 µM.

B9: TF(3A) with mutation set mutB (M374A, Y378A, V384A, F387A) (natural protein, E. coli, UniProt P0A850 1-432, looked up)
chain: B4 chain with E140M, M374A, Y378A, V384A, F387A
notes: as for B4
Regarding B9, the dissociation constant (Kd) in data set [2] is over 1000 µM.

B10: TF(3A) with mutation sets mutB + mutD (M374A, Y378A, V384A, F387A, R316A, R321A) (natural protein, E. coli, UniProt P0A850 1-432, looked up)
chain: B4 chain with E140M, R316A, R321A, M374A, Y378A, V384A, F387A
notes: as for B4
In data set [2], B10 showed a Kd of over 1000 µM.

B11: SBD–PPD (114–432) (domain or fragment, E. coli, UniProt P0A850 114-432, looked up)
chain: EVELQGLEAIEVEKPIVEVTDADVDGMLDTLRKQQATWKEKDGAVEAEDRVTIDFTGSVDGEEFEGGKASDFVLAMGQGRMIPGFEDGIKGHKAGEEFTIDVTFPEEYHAENLKGKAAKFAINLKKVEERELPELTAEFIKRFGVEDGSVEGLRAEVRKNMERELKSAIRNRVKSQAIEGLVKANDIDVPAALIDSEIDVLRRQAAQRFGGNEKQALELPRELFEEQAKRRVVVGLLLGEVIRTNELKADEERVKGLIEEMASAYEDPKEVIEFYSKNKELMDNMRNVALEEQAVEAVLAKAKVTEKETTFNELMNQQA
notes: Trigger Factor, E. coli, residues 114-432; also called bi-domain construct SBD–PPD; not shown: His tag, N-terminal, cleaved
As for B11, the Kd in data set [1] was over 1000 µM.

For the origin of these results see paper PMC5722895, “The dynamic dimer structure of the chaperone Trigger Factor” (Nature Communications, 2017).
